According to patent US20240116984A1 (published 2024):
Starred links: 1 amine or outer side, 2 acyl side, 3 side chain; linkers in the order of their positions; H or OH if unused. Non-standard residues stand in square brackets, D forms with d. Primed or numbered codes have the meaning given here. aTyr = Tyr with backbone N-amino (N-aminated amide nitrogen), NN([C@@H](Cc1ccc(O[*:3])cc1)C(=O)[*:2])[*:1]; aIle′ = Ile with backbone N-amino (N-aminated amide nitrogen), CC[C@H](C)[C@@H](C(=O)[*:2])N(N)[*:1]; aVal = Val with backbone N-amino (N-aminated amide nitrogen), CC(C)[C@@H](C(=O)[*:2])N(N)[*:1]; N(NH2)Lys = NCCCC[C@H](NN)C(=O)O

B1: Compound 12, Ac-Val-Gln-aIle-Val-aTyr-Lys-NH2 (peptide)
peptide: Ac-VQ[aIle′]V[aTyr]K-NH2
SMILES: CC[C@H](C)[C@@H](C(=O)N[C@H](C(=O)N(N)[C@@H](Cc1ccc(O)cc1)C(=O)N[C@@H](CCCCN)C(N)=O)C(C)C)N(N)C(=O)[C@H](CCC(N)=O)NC(=O)[C@@H](NC(C)=O)C(C)C
B2: Compound 4, Ac-aVal-Gln-aIle-Ile-Asn-Lys-NH2 (peptide)
peptide: Ac-[aVal]Q[aIle′]INK-NH2
SMILES: CC[C@H](C)[C@H](NC(=O)[C@H]([C@@H](C)CC)N(N)C(=O)[C@H](CCC(N)=O)NC(=O)[C@H](C(C)C)N(N)C(C)=O)C(=O)N[C@@H](CC(N)=O)C(=O)N[C@@H](CCCCN)C(N)=O
B3: Compound 13, Ac-Val-Gln-Ile-aVal-Tyr-aLys-NH2 (peptide)
peptide: Ac-VQI[aVal]Y[N(NH2)Lys]-NH2
SMILES: CC[C@H](C)[C@H](NC(=O)[C@H](CCC(N)=O)NC(=O)[C@@H](NC(C)=O)C(C)C)C(=O)N(N)[C@H](C(=O)N[C@@H](Cc1ccc(O)cc1)C(=O)N(N)[C@@H](CCCCN)C(N)=O)C(C)C

Target: Human tauP301L (0N4R), recombinant, N-terminal His tag (UniProt P10636 2-758)
Experiment: capping of pre-formed Tau P301L fibers, inhibition of seeding in HEK293 tau-RD-YFP cells

Sequence of Human tauP301L (0N4R), recombinant, N-terminal His tag (P10636 other isoform, or with tags, fused parts or gaps): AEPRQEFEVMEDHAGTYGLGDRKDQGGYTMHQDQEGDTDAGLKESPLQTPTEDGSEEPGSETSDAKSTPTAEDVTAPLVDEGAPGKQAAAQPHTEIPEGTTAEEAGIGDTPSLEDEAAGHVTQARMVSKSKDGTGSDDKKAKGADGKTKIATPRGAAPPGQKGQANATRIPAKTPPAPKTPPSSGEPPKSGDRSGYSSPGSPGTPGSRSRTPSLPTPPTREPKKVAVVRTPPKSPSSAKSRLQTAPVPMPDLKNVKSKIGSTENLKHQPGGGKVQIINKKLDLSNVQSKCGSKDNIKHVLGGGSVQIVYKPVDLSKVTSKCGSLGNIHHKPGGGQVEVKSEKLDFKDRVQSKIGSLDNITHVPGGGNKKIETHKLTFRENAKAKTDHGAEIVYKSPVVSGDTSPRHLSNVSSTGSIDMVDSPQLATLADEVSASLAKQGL

B1 was tested. Which IC50 did it give?
The IC50 was 4.8 µM.

How did the IC50 turn out when B2 was run?
The IC50 was > 20 µM.

How did the IC50 turn out when B3 was run?
The IC50 was 4.7 µM.
